Results taken from patent US20220162305A1 (IMCHECK THERAPEUTICS, published 2022).

T1: recombinant human BTN2A1-Fc fusion protein (GTP Technologies) (human, UniProt Q7KYR7 29-248, biotinylated with EZ-Link NHS-PEG4 biotin for the Octet affinity assay (sites not given))
T1 construct: Bought soluble Fc fusion; Used biotinylated in Octet, unmodified in ELISA and cross-linking MS; also called rhBTN2A1-Fc; huBTN2A1-Fc; not shown: Fc part of the bought fusion protein
T1 sequence: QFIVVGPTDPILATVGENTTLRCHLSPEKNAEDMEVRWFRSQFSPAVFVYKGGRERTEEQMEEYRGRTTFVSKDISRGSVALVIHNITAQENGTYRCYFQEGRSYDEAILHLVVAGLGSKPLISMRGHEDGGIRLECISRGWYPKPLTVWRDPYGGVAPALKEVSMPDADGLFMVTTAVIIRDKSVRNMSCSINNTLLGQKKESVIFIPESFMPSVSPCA

T2: biotinylated recombinant human BTN2A2-Fc (R&D Systems) (human, UniProt Q8WVV5 33-265, limits assumed, biotinylated (sites not given))
T2 construct: Bought soluble Fc fusion; also called rhBTN2A2-Fc; not shown: Fc part of the bought fusion protein
T2 sequence: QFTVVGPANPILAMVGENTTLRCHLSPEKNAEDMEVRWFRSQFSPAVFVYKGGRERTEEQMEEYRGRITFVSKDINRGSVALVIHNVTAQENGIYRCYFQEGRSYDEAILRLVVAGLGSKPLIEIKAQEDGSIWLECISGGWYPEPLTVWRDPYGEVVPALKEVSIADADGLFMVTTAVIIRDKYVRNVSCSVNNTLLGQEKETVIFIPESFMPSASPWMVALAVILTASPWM

T3: human BTN2A1-CFP fusion protein expressed on HEK-293T BTN2 KO cells (human, UniProt Q7KYR7 29-527)
T3 construct: not shown: CFP tag; printed as 'CFP(Nter)-fusion' and as 'BTN2A1-CFP'
T3 sequence: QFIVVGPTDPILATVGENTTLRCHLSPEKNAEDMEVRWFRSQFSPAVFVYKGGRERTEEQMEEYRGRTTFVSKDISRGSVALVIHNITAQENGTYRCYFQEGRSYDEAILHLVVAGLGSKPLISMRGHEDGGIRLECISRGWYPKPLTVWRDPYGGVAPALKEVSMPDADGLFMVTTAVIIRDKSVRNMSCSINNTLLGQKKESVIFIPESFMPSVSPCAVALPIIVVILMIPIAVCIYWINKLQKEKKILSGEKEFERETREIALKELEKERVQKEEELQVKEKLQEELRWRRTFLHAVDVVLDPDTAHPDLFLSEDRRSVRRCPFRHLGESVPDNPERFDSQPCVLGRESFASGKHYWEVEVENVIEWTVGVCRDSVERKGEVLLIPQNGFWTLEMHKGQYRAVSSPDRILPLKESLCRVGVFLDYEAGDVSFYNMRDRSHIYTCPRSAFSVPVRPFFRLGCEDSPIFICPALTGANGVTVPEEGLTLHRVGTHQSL

B1: chimeric anti-BTN2A mAb1 (101G5), chimeric IgG1 format (antibody, V domains shown)
VH: EVQLQQSGPELVKPGASVKISCKASGYSFTVYYMLWVKQSPEKSLEWIGEINPSTGGTTYNQKFKAKATLTVDKSSSTAYMQLKSLTSEDSAVYYCARGPSFYALDYWGQGTSVTVSS
VL: EIVLTQSPTTMAASPGEKITITCSATSSISSNYLHWYRHKPGFSPKLLIYRTSNLASGVPGRFSGSGSGTSYSLTIGTMEAEDVATYYCQQGSSIPRTFGGGTKLEIK
notes: Chimeric IgG1 (isotype control human IgG1), made in HEK-293 cells; also called anti-BTN2A 101G5
B2: purified anti-BTN2A1 107G3 mAb (mouse hybridoma antibody) (antibody, V domains shown)
VH: QVQLKESGPGLVAPSQSLSITCTVSGFSLTNYVISWVRQPPGKGLEWLGVIWTGGDTNYNSALKSRLSISKDNSKSQVFLKMNSLQTGDTARYYCARGGQLGLRGYWGQGTLVTVSA
VL: DIVLTQSPASLAVSLGQRATISCRASKTVSSSGYSYMHWYQQKPGQPPKLLIYLASNLESGVPARFSGSGSGTDFTLNIHPVEEEDAATYYCQHSRDLPYAFGGGTKLEIK
notes: Mouse antibody purified from hybridoma; mouse IgG1 served as its isotype control; also called anti-BTN2A1 mAb 107G3
B3: chimeric anti-BTN2A mAb2 (107G3), chimeric IgG1 format (antibody, V domains shown)
VH: B2 VH
VL: B2 VL
notes: Murine VH and VK cloned into heavy and light chain expression vectors, chimeric IgG1 (isotype control human IgG1), made in HEK-293 cells; also called anti-BTN2A 107G3

Columns and labels:
[1] = target: T1, recombinant human BTN2A1-Fc fusion …; assay: ELISA, huBTN2A1-Fc coated at 5 µg/mL, mAb titrated, goat anti-mouse IgG HRP, absorbance at 405 nm
Experimental: For ELISA, cynoBTN2A1-Fc protein or recombinant human BTN2A1-Fc (huBTN2A1-Fc, GTP Technologies) were coated (5 μg/mL in 1×PBS) overnight at 4° C. After 3 washes in PBS, plates were saturated with BSA 2% v/v in PBS for 1 h at room temperature, then saturating buffer was discarded. […] All wells were washed 3 times in PBS before addition of Goat anti-mouse IgG HRP (Jackson ImmunoResearch, 1:10000 dilution in PBS BSA 2%) and incubation for 1 h at room temperature. […] All samples were assessed in duplicates.

[2] = target: T2, biotinylated recombinant human …; assay: BLI (Octet Red96), chimeric mAb on FAB2G sensors, biotinylated rhBTN2A2-Fc as analyte, 30 °C, 2:1 model
Experimental: (§1) After generation of the reference anti-BTN2A antibodies in chimeric IgG1 format, affinities for the 2 different isoforms of this target (BTN2A1 and BTN2A2) were evaluated and competition assays were performed to determine whether these mAbs recognized the same epitope region of BTN2A1. Affinity and binning experiments were performed on an Octet Red96 platform (Fortebio/PALL), system based on Bio-layer interferometry (BLI) technology. For affinity experiments, recombinant human (rh)BTN2A1-Fc (GTP) was biotinylated using EZ-Link™ NHS-PEG4 Biotinylation Kit according to manufacturer's instructions, and biotinylated rhBTN2A2-Fc was purchased from R&D Systems. […] For BTN2A2 affinity assays, chimeric anti-BTN2A antibodies were loaded into FAB2G sensors (anti human CH1; Fortebio) as described above, and biotinylated rhBTN2A2-Fc was used as analyte. In both cases, analytes remained in solution and their working concentrations were diluted in Kinetic Buffer 10× (ForteBio). […] All runs (including loading, equilibration, association/dipping of sensors into analyte, dissociation and regeneration) were performed at 30° C. with shaking 1000 rpm. Analysis was performed using a 1:1 or 2:1 Langmuir model (for BTN2A1 or BTN2A2, respectively) calculated by Octet software, which allowed a better fitting calculation.

[3] = target: T1, recombinant human BTN2A1-Fc fusion …; assay: BLI (Octet Red96), biotinylated rhBTN2A1-Fc on streptavidin sensors, chimeric mAb as analyte, 30 °C, 1:1 model
Experimental: Affinity and binning experiments were performed on an Octet Red96 platform (Fortebio/PALL), system based on Bio-layer interferometry (BLI) technology. For affinity experiments, recombinant human (rh)BTN2A1-Fc (GTP) was biotinylated using EZ-Link™ NHS-PEG4 Biotinylation Kit according to manufacturer's instructions, and biotinylated rhBTN2A2-Fc was purchased from R&D Systems. […] For BTN2A2 affinity assays, chimeric anti-BTN2A antibodies were loaded into FAB2G sensors (anti human CH1; Fortebio) as described above, and biotinylated rhBTN2A2-Fc was used as analyte. In both cases, analytes remained in solution and their working concentrations were diluted in Kinetic Buffer 10× (ForteBio). […] All runs (including loading, equilibration, association/dipping of sensors into analyte, dissociation and regeneration) were performed at 30° C. with shaking 1000 rpm. Analysis was performed using a 1:1 or 2:1 Langmuir model (for BTN2A1 or BTN2A2, respectively) calculated by Octet software, which allowed a better fitting calculation.

[4] = target: T3, human BTN2A1-CFP fusion protein …; assay: flow cytometry, MFI on CFP+ HEK-293T BTN2 KO cells transfected with BTN2A1-CFP, 5 ng/mL to 75 µg/mL mAb
[5] = target: T2, biotinylated recombinant human …; assay: BLI (Octet Red96), chimeric mAb on FAB2G sensors, biotinylated rhBTN2A2-Fc as analyte
Experimental: as §1

Row | Binder | EC50 [1] | Kd [2] | Kd [3] | EC50 [4] | binding result [5]
1 | B1 | 820 pM | 4400 pM | 41 pM | – | –
2 | B2 | – | – | – | 0.32 µg/mL | –
3 | B3 | 560 pM | – | 410 pM | – | no binding (tested: 200 nM)
